Assay: label from the status in PepcDB records

Protein production, failed:
MKLLAITSCPNGIAHTYMAAENLQKAADRMGVQMKVETQGGIGVENELTEQEIREADAIIIAADRSVNKDRFIGKKLLAVGVQEGIRKPEELIQKAIGGDIPVYRSAVKTEASAQTEKKQNPIYRHLMNGVSFMVPFIVVGGLLIAVALTLGGEKTPKGLVIPDDSFWKTIEQIGAASFSFMIPILAGYIAYSIADKPGLVPGMIGGYIAATGSFYGSGSGAGFLGGIIAGFLAGYAALAIKKLKVPKAIQPIMPIIVIPVVSSLIVGLAFVLLIGAPVAQIFESLTVWLAGMQGSSSILLALILGAMISFDMGGPVNKVAFLFGSAMIGEGNYEIMGPIAVAICIPPIGLGIATFLGKRKFQAQEREMGKAAFTMGLFGITEGAIPFAAQDPLRVIPSIMAGSMTGSVIAMIGNVGDRVAHGGPIVAVLGAVDHVLMFFIAVIAGSLVTSLLVNVLKKEVTAAPAGISEAAAGNDIPQPNIEIEAESKKIEKPEITKLTDIIDTDLIEPHLSGDTRDDIIDEMIQKLSRKGVLHSESEFKQAIINRELEGTTAIGMNIAIPHGKSDAVKKPSVAFGIKRSGVDWRSLDGTDAKLIFMIAVPKESGGNEHLKLLQMLSRKLMDDTYRDKLLSAQTKEEAYKLLDEII
MKLNATYIKIRDKWWGLPLFLPSLILPIFAHINTFAHISSGEVFLFYLPLALMISMMMFFSWAALPGIALGIFVRKYAELGFYETLSLTANFIIIIILCWGGYRVFTPRRNNVSHGDTRLISQRIFWQIVFPATLFLILFQFAAFVGLLASRENLVGVMPFNLGTLINYQALLVGNLIGVPLCYFIIRVVRNPFYLRSYYSQLKQQVDAKVTKKEFALWLLALGALLLLLCMPLNEKSTIFSTNYTLSLLLPLMMWGAMRYGYKLISLLWAVVLMISIHSYQNYIPIYPGYTTQLTITSSSYLVFSFIVNYMAVLATRQRAVVRRIQRLAYVDPVVHLPNVRALNRALRDAPWSALCYLRIPGMEMLVKNYGIMLRIQYKQKLSHWLSPLLEPGEDVYQLSGNDLALRLNTESHQERITALDSHLKQFRFFWDGMPMQPQIGVSYCYVRSPVNHIYLLLGELNTVAELSIVTNAPENMQRRGAMYLQRELKDKVAMMNRLQQALEHNHFFLMAQPITGMRGDVYHEILLRMKGENDELISPDSFLPVAHEFGLSSSIDMWVIEHTLQFMAENRAKMPAHRFAINLSPTSVCQARFPVEVSQLLAKYQIEAWQLIFEVTESNALTNVKQAQITLQHLQELGCQIAIDDFGTGYASYARLKNVNADLLKIDGSFIRNIVSNSLDYQIVASICHLARMKKMLVVAEYVENEEIREAVLSLGIDYMQGYLIGKPQPLIDTLNEIEPIRESA
MKLNRAIGVIDSGVGGLTVAKELIRQLPKERIIYLGDTARCPYGPRSREEVRQFTWEMTEHLLDLNIKMLVIACNTATAVVLEEMQKQLPIPVVGVIHPGSRTALKVTNTYHVGIIGTIGTVKSGAYEEALKSINNRVMVESLACPPFVELVESGNFESEMAYEVVRETLQPLKNTDIDTLILGCTHYPILGPVIKQVMGDKVQLISSGDETAREVSTILYHSKMLNEGEEQSDHLFLTTGKIGLFKEIASKWFGQPIENVKHIHLEKE
MKLRTQISILLIVFAVLLSGIVFAGFQLNKESVTGRQLDETTQHSERIAAGLDTRLKGLKRTVRLQATNPAIAAHGTPQQHYALKTMVNETMFNGVSVIHRNGTMTGIAAGLDPETRSELIGSDFSDRHYFQRARNGETYISAPVVADSGNYIVTISTPIYRDGAVVGTLNAALHLQDSSIFRMASKTANRDSSVFIRTQSGNQIYNRSAHLSSDPVTANATVNETGWIVQVQTSRNVLAGDLRTVTIYQLGGIGLVLALISGFGSILYTQILRYHRQLVRGFEALQRQEYGQQVAEEATGDWGQIFTAFNELSQTLAEYEEERVKHRNELQQERDRFRRLFQSIPEPAVVVEYTGNKTLIHNVNEAFEETFGYEASNAVGGDINDFIVPDGSLEEAESIDQLSSSGKQVTHEVRREAADGKRDFLLRSTPAVDGEDEVYFGVYIDITDRKQQERELTETNSVLSSVLDNMPVGILIEDADRTITTANKKLLDILDVSLTPSGLIGCEYAEIAETLKTQFADPDQFNETVNKIHSTRDAVFDEELLMADGRILARSYVSYSLPDGTGNIWLYRDITKNRQRERKLRETLEKTQKLIQAESIDEAATIAVEIANQTLSFPLSSVHLERKDGELEPAAITDAFEEGVGDTPVYQRTADNSSIDKLVWDVYTSGETRVLTDTGAEIPETISGMPSSGGIIQPMTNHGVLVTLGDSPNRFDEFDQYLVELLGAILATTLDRINQKQQIESQRDNLDLLNQIVRHDIRNDLQILLGRLDLLAERANDAQSEHVNAALRCAENAVELTQSARELSEVLLQNGTDSKPISLNRVVRQQIEEIRSANTDAEITINGSIPDVMIRANEMFDSVIRNLLKNAIQHNDKQDPEITISAIDQKEYVQLRIADNGPGVRDAQKESIFGKGEKELESSGTGIGLYLVSTLIESYGGDVWVEDNNPRGAVFVIELVKDS
MKLSFSLPSKSKPKVTATTADGNNAVDDGTSKEFVTEFDPSKTLANSIPKYVIPPIENTWRPHKKMKNLDLPLQSGNAGSGLEFEPEVPLPGTEKPDNISYGLNLRQKVKDDSIGGDAVEERKVSMGEQLMLQSLRRDLMSLADDPTLEDFESVPVDGFGAALMAGYGWKPGKGIGKNAKEDVEIKEYKKWTAKEGLGFDPDRSKVVDVKAKVKESVKLDKKGVGINGGDVFFVGKEVRIIAGRDVGLKGKIVEKPGSDFFVIKISGSEEEVKVGVNEVADLGSKEEEKCLKKLKDLQLNDREKDKKTSGRGRGAERGSRSEVRASEKQDRGQTRERKVKPSWLRSHIKVRIVSKDWKGGRLYLKKGKVVDVVGPTTCDITMDETQELVQGVDQELLETALPRRGGPVLVLSGKHKGVYGNLVEKDLDKETGVVRDLDNHKMLDVRLDQVAEYMGDMDDIEY
MKLSIHGRKITLTDAIRKYAEEKISKVEKFNDSIIKIDATLAASKLKTGNAHVTEILAYLSGSTLKATATESDLYASIDKAVDIMESLLKKHKEKRSRAKVQDDTRKKSYSFDYIVEPEEKLSDEKKLVRVYLPLKPMEISEAILQLEYLNRVFFAFTNTTTGKMAVVYKRKDGDYGVIED
MKLSINDLNVFVNTPKDIAKLCEDLSRLGLEVESCIPCIAPKNVVVGKILEKAPHKNAEKLSVCQVDVGKEVLQIVCGAKNVAPNQFVPVALNGALIGSTTIAKTELRGVESHGMICSSIELGFPKINDGILELDESVGELVLGKELNEYAPFNTHVLEISLTPNRGDCLSVLGIAREISAFYHTPLKPIKALNFTPKSGLITLSAGENIESHLAYYLICNHSLKTPLNIKLSLAHNNALSENDLNNFIEFSTHFSGVIMNAYSLNTTPMDLSVKNDENNLESVYINHQKRSTIAIKHQVQKDLSECLLLEASYTDPISLSLKLHALKDKTLQKDNALIYRSARGSNPNLSDGLNFLSAHLKATILESKQTEHSLKDRTLTFQLEDITEILGLAVEKEKIQGILKNLGFKVSVKEPNSKPQILEVIAPNFRHDIKTIQDIAEEILRFVGIDNLVSKPLHCVSSKNSNPNYDTHRFFENLKHKALACGFKEVIHYVFYSKEKQQKLGFEVLEDPLELQNPITTELNTLRTSLVCGLLDASLRNKNLGFKSIALYEKGSVYNSKREEIQKLGFLISGLQKKESYPDTKGKAWDFYSFAECVSKVIGDFSLEKLTTQTPINHPYQSAKIIQNHEIIGVIAKIHPKVIQELDLFESYYAEIDAFKLKRPAMLLKPFSIYPSSVRDLTLIIDENTAFSGIKKALKDAQIPNLSEILPLDIFKESNNSIALSVRCVIHSLEKTLNDEEVNSAVQKALEILEKEFNARLKG
MKLTIIRLENFSDQDRIDLQKIWPEYSPSSLQVDDNYRIYAARFNERLLAAVRVTLSGTEGALDSLRVREVTRRRGVGQYLLEEVLRNNPDVSCWWMADAGVEDRGVMTAFMRALGFTAQQGGWEKH
MKLVCISDTHSLHRRIPEIPDGDVLIHAGDSLGQGSLENIEDLNDWLGTLPHRHKIVIAGNHDWAFQEMPGEARTALSNAVYLEDSGVEIEGNRFWGSPWTPTFMDWAFMLERGEPLYQKWQLVPDNTDVLITHGPPKGIGDEANLGFKCQNVGCVDLLARIHQLSLKAHIFGHIHEGYGEYLRGKTRLINASTCTARYEPRNAPIVVDVLEHHHHHH
MKLVFVTVNYNNIDETRKVLNCFSGLSHGENSVLYVVDNSDSKSECQSLDKENTNNKIKFLYPKENLGYLTGASFGVDFHYNNHGFDFDYLIILNNDIIFNVNEVLKSLEIFSQNNDAMMISPLVIDRGVNVNPYLTVRKSKRYMMFWNFILSNFFTFKVFHKINKYRALLSSKNNFSSTVQPFQKIYGSHGSVFILKNEYFLRGGSLRRLPFLYGEEIYIAEQVRKLGGDCVYYPSIKFEHKGSATLGNDTSRFKYLCIKQGHSFLYREFYS
